This experiment addresses tetraubiquitin chain (Homo sapiens, UniProt P0CG48, tetraubiquitin chain, N-terminal Dylight550-labeled ubiquitin). The experiment can be described thus: single-molecule TIRF dwell time.

B1: 26S proteasome (protein)
chain 1: MVLESTMVCVDNSEYMRNGDFLPTRLQAQQDAVNIVCHSKTRSNPENNVGLITLANDCEVLTTLTPDTGRILSKLHTVQPKGKITFCTGIRVAHLALKHRQGKNHKMRIIAFVGSPVEDNEKDLVKLAKRLKKEKVNVDIINFGEEEVNTEKLTAFVNTLNGKDGTGSHLVTVPPGPSLADALISSPILAGEGGAMLGLGASDFEFGVDPSADPELALALRVSMEEQRQRQEEEARRAAAASAAEAGIATTGTEDSDDALLKMTISQQEFGRTGLPDLSSMTEEEQIAYAMQMSLQGAEFGQAESADIDASSAMDTSEPAKEEDDYDVMQDPEFLQSVLENLPGVDPNNEAIRNAMGSLASQATKDGKKDKKEEDKK
chain 2: TTSGALFPSLVPGSRGASNKYLVEFRAGKMSLKGTTVTPDKRKGLVYIQQTDDSLIHFCWKDRTSGNVEDDLIIFPDDCEFKRVPQCPSGRVYVLKFKAGSKRLFFWMQEPKTDQDEEHCRKVNEYLNNPPMPGALGASGSSGHELSALGGEGGLQSLLGNMSHSQLMQLIGPAGLGGLGGLGALTGPGLASLLGSSGPPGSSSSSSSRSQSAAVTPSSTTSSTRATPAPSAPAAASATSPSPAPSSGNGASTAASPTQPIQLSDLQSILATMNVPAGPAGGQQVDLASVLTPEIMAPILANADVQERLLPYLPSGESLPQTADEIQNTLTSPQFQQALGMFSAALASGQLGPLMCQFGLPAEAVEAANKGDVEAFAKAMQNNAKPEQKEGDTKDKKDEEEDMSLD
In turn, B1 came in with a Kd of 210 nM.

For the origin of these results see article PMC4450770 (2016).
